In paper PMC9569990 (International Journal of Molecular Sciences, 2022):

Tests used:
Assay in all cases: SPR; cytokine immobilised on ProteOn GLH sensor chip by amine coupling (9,000-14,000 RU); S100P (wild type or mutant) as analyte, 62 nM-16 µM; 25 °C; 10 mM HEPES, 150 mM NaCl, 1 mM CaCl2, 0.05% TWEEN 20, pH 7.4; heterogeneous ligand model (two ligand populations), one-site model for IL-13; values averaged over analyte concentrations (n = 3-5)
Details in all cases: both partners purified
[1] = target: T1, Interleukin-31 (human, UniProt Q6EBC2 24-164)
T1 construct: Interleukin-31, human, UniProt Q6EBC2; see the manufacturer's catalogue number; also called IL-31; source: bought: PeproTech (source E. coli)
T1 sequence (looked up): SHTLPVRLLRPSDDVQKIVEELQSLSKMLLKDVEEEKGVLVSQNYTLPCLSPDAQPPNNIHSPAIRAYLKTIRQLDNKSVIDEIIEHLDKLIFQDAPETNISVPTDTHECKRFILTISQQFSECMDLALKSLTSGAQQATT

[2] = target: T2, Interleukin-20 (human, UniProt Q9NYY1 25-176)
T2 construct: Interleukin-20, human, UniProt Q9NYY1; see the manufacturer's catalogue number; also called IL-20; source: bought: PeproTech (source E. coli)
T2 sequence (looked up): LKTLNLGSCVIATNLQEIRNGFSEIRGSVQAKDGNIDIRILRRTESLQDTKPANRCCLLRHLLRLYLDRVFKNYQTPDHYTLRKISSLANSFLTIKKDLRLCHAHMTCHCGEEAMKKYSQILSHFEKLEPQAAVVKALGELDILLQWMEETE

[3] = target: T3, Interferon ω-1 (human, UniProt P05000 22-195)
T3 construct: Interferon omega-1, human, UniProt P05000; see the manufacturer's catalogue number; also called IFN-ω1; source: bought: PeproTech (source E. coli)
T3 sequence (P05000 22-195): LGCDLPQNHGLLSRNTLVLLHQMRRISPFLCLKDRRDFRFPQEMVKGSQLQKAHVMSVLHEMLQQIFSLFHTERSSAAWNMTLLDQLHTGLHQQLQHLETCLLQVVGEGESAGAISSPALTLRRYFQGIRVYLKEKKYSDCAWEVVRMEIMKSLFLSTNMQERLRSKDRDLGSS

[4] = target: T4, Interleukin-22 (human, UniProt Q9GZX6 34-179)
T4 construct: Interleukin-22, human, UniProt Q9GZX6; see the manufacturer's catalogue number; also called IL-22; source: bought: PeproTech (source E. coli)
T4 sequence (looked up): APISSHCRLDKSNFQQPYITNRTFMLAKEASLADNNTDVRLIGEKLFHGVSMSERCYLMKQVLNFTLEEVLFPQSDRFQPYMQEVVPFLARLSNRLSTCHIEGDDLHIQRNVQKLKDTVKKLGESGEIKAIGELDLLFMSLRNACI

[5] = target: T5, Granulocyte colony-stimulating factor (human, UniProt P09919-2 31-204)
T5 construct: Granulocyte colony-stimulating factor, human, UniProt P09919; No catalogue number (n/a); also called G-CSF; source: bought: Pharmstandard (Russia) (source E. coli)
T5 sequence (looked up): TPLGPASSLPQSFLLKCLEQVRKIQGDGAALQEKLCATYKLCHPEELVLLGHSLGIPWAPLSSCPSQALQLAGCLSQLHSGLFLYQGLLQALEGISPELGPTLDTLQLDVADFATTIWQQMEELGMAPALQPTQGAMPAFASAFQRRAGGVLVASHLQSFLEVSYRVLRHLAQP

[6] = target: T6, Interleukin-24 (human, UniProt Q13007 52-206)
T6 construct: Interleukin-24, human, UniProt Q13007; see the manufacturer's catalogue number; also called IL-24; source: bought: PeproTech (source CHO)
T6 sequence (looked up): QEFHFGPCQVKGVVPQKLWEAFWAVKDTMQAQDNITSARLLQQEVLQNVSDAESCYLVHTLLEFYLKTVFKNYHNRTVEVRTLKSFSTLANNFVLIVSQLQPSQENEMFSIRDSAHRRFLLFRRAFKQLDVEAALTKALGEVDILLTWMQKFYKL

- Kd1 (heterogeneous ligand model, population 1) [1]: 25.2 nM
- Kd2 (heterogeneous ligand model, population 2) [1]: 202 nM
- kd1 (heterogeneous ligand model, population 1) [1]: 0.00023 s⁻¹
- kd2 (heterogeneous ligand model, population 2) [1]: 0.0583 s⁻¹
- Kd1 (heterogeneous ligand model, population 1) [2]: 403 nM
- Kd2 (heterogeneous ligand model, population 2) [2]: 537 nM
- kd1 (heterogeneous ligand model, population 1) [2]: 0.000442 s⁻¹
- kd2 (heterogeneous ligand model, population 2) [2]: 0.0246 s⁻¹
- Kd1 (heterogeneous ligand model, population 1) [3]: 174 nM
- Kd2 (heterogeneous ligand model, population 2) [3]: 578 nM
- kd1 (heterogeneous ligand model, population 1) [3]: 0.000571 s⁻¹
- kd2 (heterogeneous ligand model, population 2) [3]: 0.00839 s⁻¹
- Kd1 (heterogeneous ligand model, population 1) [4]: 482 nM
- Kd2 (heterogeneous ligand model, population 2) [4]: 780 nM
- kd1 (heterogeneous ligand model, population 1) [4]: 0.00764 s⁻¹
- kd2 (heterogeneous ligand model, population 2) [4]: 0.00276 s⁻¹
- Kd1 (heterogeneous ligand model, population 1) [5]: 213 nM
- Kd2 (heterogeneous ligand model, population 2) [5]: 854 nM
- kd1 (heterogeneous ligand model, population 1) [5]: 0.000315 s⁻¹
- kd2 (heterogeneous ligand model, population 2) [5]: 0.0154 s⁻¹
- Kd1 (heterogeneous ligand model, population 1) [6]: 158 nM
- Kd2 (heterogeneous ligand model, population 2) [6]: 918 nM
- kd1 (heterogeneous ligand model, population 1) [6]: 0.000483 s⁻¹
- kd2 (heterogeneous ligand model, population 2) [6]: 0.00794 s⁻¹
B1: Human S100P protein (recombinant, Ca^2+-loaded) (natural protein)
chain: MTELETAMGMIIDVFSRYSGSEGSTQTLTKGELKVLMEKELPGFLQSGKDKDAVDKLLKDLDANGDAQVDFSEFIVFVAAITSACHKYFEKAGLK
notes: S100P protein, human, recombinant; probably the whole 95-residue protein (surmise); also called wild-type S100P; WT S100P; source: E. coli, prepared as previously described [28]
